Results on two molecules are retold here after patent US20200291112A1 (Memorial Sloan Kettering, published 2020).

As usually defined, the koff is the rate constant with which the complex falls apart. As a reminder, the kon is the second-order rate constant of association.

The target in test [1] is T1, Human GPA33 (Novoprotein), recombinant protein immobilized on CM5 chips (human, UniProt Q99795 22-235).
T1 construct: also called GPA33 recombinant protein; Human Glycoprotein A33
T1 sequence: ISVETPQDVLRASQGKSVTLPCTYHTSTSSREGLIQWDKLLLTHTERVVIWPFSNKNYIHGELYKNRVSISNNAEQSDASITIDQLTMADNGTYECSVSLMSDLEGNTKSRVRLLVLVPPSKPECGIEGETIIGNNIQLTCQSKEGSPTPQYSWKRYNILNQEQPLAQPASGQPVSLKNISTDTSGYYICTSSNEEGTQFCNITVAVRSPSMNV
Nature of the test: SPR (Biacore T100), human GPA33 immobilized on CM5 chip, huA33-BsAb flowed over, 37 °C, 1:1 binding model; the KD column head prints no unit, M follows from the ka and kd units [contd.) C]. As for the experimental part:
(§1) SPR analysis. Human GPA33 (Novoprotein, Summit, N.J.) was immobilized on CM5 chips. Five concentrations of 2-fold serially diluted huA33 IgG1 or huA33-BsAbs (starting at 20 nM) were flowed over the chip using a Biacore™ T100 system (GE Healthcare, Chicago, Ill.). Binding kinetics of huA33 were measured at 25° C. and binding kinetics of huA33-BsAbs were measured at both 25° C. and 37° C. The sensorgrams were fitted with 1:1 binding model for both to derive kinetic parameters.

The target in test [2] is T1, Human GPA33 (Novoprotein), recombinant …. Nature of the test: SPR (Biacore T100), human GPA33 immobilized on CM5 chip, huA33-BsAb flowed over, 25 °C, 1:1 binding model [contd.) C]. As for the experimental part: as §1
The target is the same in test [3]. Nature of the test: SPR, GPA33 immobilized on CM5 chip, parental huA33-BsAb; temperature not given for this table; the KD column head prints no unit. As for the experimental part:
as §1
Background: Surface plasmon resonance follows binding to a sensor surface in real time, without labels.

Test [4] has the same target. As to the kind of experiment: SPR (Biacore T100), human GPA33 immobilized on CM5 chip, huA33-BsAb flowed over, 37 °C, 1:1 binding model [contd.) C]. As for the experimental part:
as §1

The target is the same in test [5]. Nature of the test: SPR (Biacore T100), GPA33 immobilized on CM5 chip, antibody flowed, 1:1 model; measured at 25 C and 37 C; bispecific huA33-BsAb; GPA33 immobilized on CM5 chip; apparent affinity (avidity). As for the experimental part:
as §1

Test [6] has as its target T2, GPA33 on the surface of human colon and gastric cancer cell lines (human, UniProt Q99795 22-319).
T2 sequence (looked up): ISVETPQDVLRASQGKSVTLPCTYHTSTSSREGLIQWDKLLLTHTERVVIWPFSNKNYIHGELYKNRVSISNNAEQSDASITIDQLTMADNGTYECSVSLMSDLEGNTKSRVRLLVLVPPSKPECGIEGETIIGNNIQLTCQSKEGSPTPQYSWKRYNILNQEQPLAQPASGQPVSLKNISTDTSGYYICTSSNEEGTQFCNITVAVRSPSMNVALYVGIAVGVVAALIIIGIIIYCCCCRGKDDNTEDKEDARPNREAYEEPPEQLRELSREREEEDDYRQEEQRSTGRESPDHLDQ
Nature of the test: cell-based or functional assay.

Test [7] has as its target T1, Human GPA33 (Novoprotein), recombinant …. As to the kind of experiment: SPR, parental huA33-BsAb, the reference of the column.
Test [8] addresses T2, GPA33 on the surface of human colon and …. As to the kind of experiment: FACS staining of SW1222 colon cancer cells with titrated huA33-BsAb, geometric mean MFI [contd.) D].
For test [9], the target named is T1, Human GPA33 (Novoprotein), recombinant …. As to the kind of experiment: SPR (Biacore T100), human GPA33 immobilized on CM5 chip, huA33-BsAb flowed over, 25 °C, 1:1 binding model; the KD column head prints no unit, M follows from the ka and kd units [contd.) C]. As for the experimental part:
as §1

For test [10] the target is unchanged. Nature of the test: SPR (Biacore T100), GPA33 immobilized on CM5 chip, antibody flowed, 1:1 model; parental huA33 IgG, not the bispecific. As for the experimental part:
as §1

The target is the same in test [11]. As to the kind of experiment: SPR (Biacore T100), GPA33 recombinant protein immobilized on CM5 chip, antibody flowed over.
Test [12] shares this target. As to the kind of experiment: SPR (Biacore T100), GPA33 recombinant protein immobilized on CM5 chip, IgG1 flowed over, 25 °C, 1:1 binding model. As for the experimental part:
as §1

B1: huA33-BsAb (bispecific antibody, human IgG1, kappa, N297A)
heavy: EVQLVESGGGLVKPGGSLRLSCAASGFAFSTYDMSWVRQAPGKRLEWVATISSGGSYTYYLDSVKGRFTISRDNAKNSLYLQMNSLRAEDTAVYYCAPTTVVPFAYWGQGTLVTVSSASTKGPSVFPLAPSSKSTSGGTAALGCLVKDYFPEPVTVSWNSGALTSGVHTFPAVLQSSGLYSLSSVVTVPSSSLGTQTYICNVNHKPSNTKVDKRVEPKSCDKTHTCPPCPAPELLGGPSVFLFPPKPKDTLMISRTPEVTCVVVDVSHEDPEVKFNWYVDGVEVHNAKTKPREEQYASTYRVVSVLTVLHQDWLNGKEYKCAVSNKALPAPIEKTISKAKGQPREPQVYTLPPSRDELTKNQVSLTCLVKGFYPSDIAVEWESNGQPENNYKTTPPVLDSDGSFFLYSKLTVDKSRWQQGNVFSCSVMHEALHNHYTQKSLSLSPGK
light: DIQMTQSQSSLSTSVGDRVTITCKASQNVRTVVAWYQQKPGKSPKTLIYLASNRHTGVPSRFSGSGSGTEFTLTISNVQPEDFADYFCLQHWSYPLTFGSGTKLEIKRTVAAPSVFIFPPSDEQLKSGTASVVCLLNNFYPREAKVQWKVDNALQSGNSQESVTEQDSKDSTYSLSSTLTLSKADYEKHKVYACEVTHQGLSSPVTKSFNRGECTSGGGGSGGGGSGGGGSQVQLVQSGGGVVQPGRSLRLSCKASGYTFTRYTMHWVRQAPGKCLEWIGYINPSRGYTNYNQKFKDRFTISRDNSKNTAFLQMDSLRPEDTGVYFCARYYDDHYSLDYWGQGTPVTVSSGGGGSGGGGSGGGGSGGGGSGGGGSGGGGSDIQMTQSPSSLSASVGDRVTITCSASSSVSYMNWYQQTPGKAPKRWIYDTSKLASGVPSRFSGSGSGTDYTFTISSLQPEDIATYYCQQWSSNPFTFGCGTKLQITR
notes: huA33 (H2L2) IgG1 with the humanized OKT3 scFv fused to the C-terminus of the light chain via a (G4S)3 linker; also called T-cell engaging huA33-BsAb; humanized A33-bispecific antibody
Take B1: the Kd in test [1] was 245 pM; in [3], 168 pM; in [5], ~200 pM; in test [9] it was 212 pM. Moreover, the koff in test [2] turned out to be 0.000478 s⁻¹; in [4], 0.00167 s⁻¹. The kon in test [2] amounted to 2.25e+06 M⁻¹ s⁻¹; in [4] it was 6.81e+06 M⁻¹ s⁻¹. Also, the “EC50 of T-cell dependent cytotoxicity against Colo205 cells (sorted fresh CD4 memory T cells, E:T=5:1, 48 hours, LDH assay)” value in [6] was 25 pM. In addition, the “Fold difference/Parental” value in [7] was 1 fold. Besides, the “EC50 (read off the curve)” value in test [8] was ~0.3 µg.

B2: huA33-IgG1 (H2L2) (antibody, V domains shown)
VH: EVQLVESGGGLVKPGGSLRLSCAASGFAFSTYDMSWVRQAPGKRLEWVATISSGGSYTYYLDSVKGRFTISRDNAKNSLYLQMNSLRAEDTAVYYCAPTTVVPFAYWGQGTLVTVSS
VL: DIQMTQSQSSLSTSVGDRVTITCKASQNVRTVVAWYQQKPGKSPKTLIYLASNRHTGVPSRFSGSGSGTEFTLTISNVQPEDFADYFCLQHWSYPLTFGSGTKLEIKR
notes: Humanized A33 IgG1, version H2L2; also called 3A3-H2L2; 3A3-H2/L2
Turning to B2, the Kd in [10] turned out to be 130 pM. Also, in test [11], the Kd was 169 pM, the dissociation rate constant (koff) stood at 0.000363 s⁻¹ and the association rate constant (kon) amounted to 2.15e+06 M⁻¹ s⁻¹. In [12], the Kd worked out at 169 pM, the koff turned out to be 0.000363 s⁻¹ and the kon came to 2.15e+06 M⁻¹ s⁻¹.
